Earlier results as cited in publication PMC5497954.

Biological target: IL2Rβγ (Homo sapiens) (UniProt P14784)
Sequence of UniProt P14784 (P14784 27-240, chain 1 of 2): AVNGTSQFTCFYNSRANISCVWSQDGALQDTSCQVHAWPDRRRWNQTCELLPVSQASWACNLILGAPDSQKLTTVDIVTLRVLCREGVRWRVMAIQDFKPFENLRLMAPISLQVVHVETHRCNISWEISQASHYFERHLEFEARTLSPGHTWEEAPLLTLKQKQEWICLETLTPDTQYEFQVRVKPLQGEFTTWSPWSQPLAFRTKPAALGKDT
Sequence of UniProt P14784 (P31785 23-262, chain 2 of 2, further chain): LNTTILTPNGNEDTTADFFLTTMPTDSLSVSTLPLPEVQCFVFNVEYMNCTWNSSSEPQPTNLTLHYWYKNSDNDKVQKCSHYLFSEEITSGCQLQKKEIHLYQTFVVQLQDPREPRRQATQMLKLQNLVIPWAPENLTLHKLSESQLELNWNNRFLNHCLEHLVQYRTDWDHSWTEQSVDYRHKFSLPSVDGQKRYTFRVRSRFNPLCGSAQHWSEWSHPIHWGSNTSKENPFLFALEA

Kd: 1 nM
Substance: IL2 (from UniProt P60568)
